# Measurements as given in the supplement of paper PMC10567573.
# ± gives the standard deviation.
# Assay: protein stability index of a GFP-peptide fusion (GPS, HEK-293T) (PSI 1-6); higher = more stable
# [1] = treatment: DMSO, c terminus: a fixed tail appended
# [2] = treatment: MLN4924 1 uM, 8 h, c terminus: a fixed tail appended
# 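Note: 24-mer peptide tiles fused after GFP, lentivirally expressed, FACS-sorted into six equal bins by GFP/DsRed ratio, decoded by Illumina sequencing, PSI is the read-weighted mean bin number.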
Sequence,protein stability index [1],protein stability index [2],"protein stability index (treatment: DMSO, c terminus: native)","protein stability index (treatment: MLN4924 1 uM, 8 h, c terminus: native)"
KGNTALHDCAESGSLDIMKMLLMY [FEM1C],1.97 ± 0.22,1.96 ± 0.34,–,–
KGYLFHTVAGKHQDLKYISPEIMA [CDC25A],2.32 ± 0.34,2.43 ± 0.23,–,–
KIEIQTLTGLFKGDKCHSLVGKPK [CASP6],3.01 ± 0.12,3.15 ± 0.42,–,–
KIIAVGVIDILPNCVSSVYLYYDP [ATE1],2.62 ± 0.42,3.19 ± 0.43,–,–
KINAWDLYYYMTQTEELKYSIDQE [NLN],2.34 ± 0.3,2.19 ± 0.35,–,–
KKIVHYTCFDQRKRANAAFLIGAY [CDC14A],2.37 ± 0.31,2.07 ± 0.83,–,–
KKPLAGSVDEQNALREVYAHAVLG [WEE1],3.43 ± 0.18,3.54 ± 0.52,–,–
KKVHKGTVPKNDADDESETPEELE [GLT8D2],5.49 ± 0.27,5.65 ± 0.093,–,–
KLKNLRRKQRRRERWLQKQGKYSG [RNF180],3.83 ± 0.33,3.93 ± 0.4,–,–
KLMKEILDKKVEKVTISNRLVSSP [HSP90AB1],2.81 ± 0.25,2.84 ± 0.42,–,–
KLQDLIKDVLRYGEEQLKTHKKCK [FCHO1],2.42 ± 0.35,2.22 ± 0.29,–,–
KNLFRLEMDMVVFRPEMKKHSWCL [N4BP2L1],2.48 ± 0.48,2.4 ± 0.45,–,–
KPYKCQQCDKRFRWSSDLNKHLTT [ZNF75A],2.18 ± 0.14,2.37 ± 0.17,–,–
KQKGSEENLDEAREQKEKSPPDQP [ADD1],5.68 ± 0.26,5.78 ± 0.15,–,–
KQLIYRVRRTDDTPVVLVGNKSDL [RIT1],3.06 ± 0.26,3.23 ± 0.23,–,–
KRAPGEETEKEEEEEDREEEDENG [NEUROD6],5.6 ± 0.34,5.69 ± 0.43,–,–
KREACHCEEVKMTVASEAKIQLSD [FAN1],4.76 ± 0.19,5 ± 0.18,–,–
KRRRKSCQACRFMKCLKVGMLKEG [ESRRG],2.67 ± 0.2,2.78 ± 0.25,–,–
KSMKPYNYCSAYESFYESTSPECA [NEUROD6],3.15 ± 0.17,3.23 ± 0.35,–,–
KTSLWEEENALWEEERAFWMENNG [CCDC70],4 ± 0.12,3.94 ± 0.19,–,–
KVALEPQLWELGKVLRKAGLSAGY [LPCAT4],2.27 ± 0.26,2.21 ± 0.36,–,–
KVEQNSRPVSCSGRDALLDQIRQG [WASL],4 ± 0.16,3.96 ± 0.081,–,–

Sequence,protein stability index [1],protein stability index [2],"protein stability index (treatment: DMSO, c terminus: native)","protein stability index (treatment: MLN4924 1 uM, 8 h, c terminus: native)"
KVHRARKTMPKSVVGLHAASKDPR [EHMT1],4.1 ± 0.16,4.08 ± 0.31,–,–
KVTISNRLVSSPCCIVTSTYGWTA [HSP90AB1],2.84 ± 0.9,2.51 ± 0.37,–,–
KWDGKSTTIKRKREDDKLVVECVM [FABP4],2.82 ± 0.3,2.83 ± 0.23,–,–
KWMLGAEDLTPEDDMPIGRNVLEL [PTPRD],3.9 ± 0.12,3.92 ± 0.44,–,–
KWNTQTKARSYSYPHCTGISQQDP [ZC2HC1C],3.33 ± 0.34,3.63 ± 0.38,–,–
KYPPDRECIYIIEAAPRQCIELYF [NETO1],3.13 ± 0.77,2.7 ± 1.3,–,–
LACLHVACVVQQKDARQWFAELSV [CCNC],3.22 ± 0.61,3.28 ± 0.45,–,–
LAEIRCDLERQNQEYQVLLDVRAR [KRT34],3.57 ± 0.17,3.59 ± 0.13,–,–
LAIDAIHQLGFIHRDIKPDNLLLD [STK38L],2.23 ± 0.35,2.04 ± 0.31,–,–
LAMKIKVGSDDLERIEARLATLEG [PSD2],2.79 ± 0.42,2.85 ± 0.49,–,–
LANLSRTQLLHLGLTQGLIERLK [KLHDC10],–,–,2.38 ± 0.53,2.35 ± 0.18
LAREGVAAFYKGYVPNMLGIIPYA [SLC25A25],2.42 ± 0.49,2.38 ± 0.27,–,–
LARGIHVAGILSLLLGTAYSFYLF [POMT2],2.6 ± 0.62,2.65 ± 0.47,–,–
LASITETIQVHRRYWRSLRVMKVE [HDAC6],2.42 ± 0.3,2.31 ± 0.16,–,–
LASRNPCPWHYLHLSGSHNTLAPT [RSPH3],2.41 ± 0.14,2.45 ± 0.16,–,–
LCDVTLMPGDTDDAFPVHRVMMAS [KLHL13],3.03 ± 0.34,3.2 ± 0.19,–,–
LCNLGKERFLELAPDFVGDILWEH [ETS2],2.46 ± 0.26,2.28 ± 0.61,–,–
LCVNYFFYGETVADYFATFVQREE [CDS1],3.4 ± 0.68,2.61 ± 0.99,–,–
LDQLRFPNGVQLSPAEDFVLVAET [APMAP],3.09 ± 0.23,3.27 ± 0.23,–,–
LDSSLASLVGNLGISGTTTKKGDL [SNAP91],4.76 ± 0.24,4.73 ± 0.19,–,–
LDTGTNYDYVREFKRSTGTWHHTK [GAN],3.34 ± 0.11,3.42 ± 0.25,–,–
LEAELLQIEERHQEKKRKFLESTD [SMARCE1],4.89 ± 0.69,5.04 ± 0.24,–,–
